In PMC9178793, “A Direct Assay for Measuring the Activity and Inhibition of Coactivator-Associated Arginine Methyltransferase 1” (Biochemistry, 2022):

Key:
[1] = substrate: CSCC[C@H](NC(=O)[C@@H](NC(=O)[C@H](CO)NC(=O)[C@H](Cc1ccccc1)NC(=O)[C@@H]1CCCN1C(=O)[C@@H]1CCCN1C(=O)[C@H](CCCNC(=N)N)NC(=O)[C@@H]1CCCN1C(=O)[C@H](C)NC(=O)[C@H](C)NC(=O)[C@@H]1CCCN1C(C)=O)[C@@H](C)O)C(N)=O; test: kinetic analysis of CARM1 substrates (KM determination, MRM LC-MS enzymatic activity assay); type: biochemical, Mus musculus; conditions: other: fixed 100 μM AdoMet, PABP1 456–466 0.05–100 μM
Text: (§1) The Mus musculus CARM1 (mmCARM1) gene sequence corresponding to the PRMT core (residues 130–497, mmCARM1_130–497) were amplified by PCR from the original GST-CARM1 construct.[19] The sequences were cloned in the pDONR207 (Invitrogen) vector using a BP reaction (Gateway Cloning, Life Technologies). The positive clones were confirmed by sequencing (GATC). The sequences were subcloned in a pDEST20 vector using an LR reaction. The resulting recombinant protein is harboring an amino-terminal glutathione S-transferase (GST) tag followed by a Tobacco etch virus (TEV) protease cleavage site. DH10Bac competent cells containing the baculovirus genome were transformed with the pDEST20-CARM1 plasmids and plated onto LB agar media containing 15 mg·mL^–1 tetracycline, 7 mg·mL^–1 gentamicin, 50 mg·mL^–1 kanamycin, 25 mg·mL^–1 X-Gal, and 40 mg·mL^–1 IPTG. Bacmid DNA purified from recombination-positive white colonies was transfected into Sf9 cells using the Lipofectin reagent (Invitrogen). Viruses were harvested 10 days after transfection. […]
(§2) Enzyme activity assays were performed with CARM1 (286 nM corresponding to 11.68 ng/μL) in 20 mM Tris buffer (pH 8) containing 50 mM Tris NaCl, 1 mM EDTA, 3 mM MgCl2, 0.1 mg/mL BSA, and 1 mM dithiothreitol (DTT). […] The supernatant (60 μL) was transferred to a new 96-well plate and analyzed. […]

[2] = substrate: C[S+](CC[C@H](N)C(=O)[O-])C[C@H]1O[C@@H](n2cnc3c(N)ncnc32)[C@H](O)[C@@H]1O; test: as above; type: biochemical, Mus musculus; conditions: other: fixed 100 μM PABP1, AdoMet 0.05–100 μM
Text: as §1, §2

B1: CARM1 (Mus musculus) (protein)
chain: GHTLERSVFSERTEESSAVQYFQFYGYLSQQQNMMQDYVRTGTYQRAILQNHTDFKDKIVLDVGCGSGILSFFAAQAGARKIYAVEASTMAQHAEVLVKSNNLTDRIVVIPGKVEEVSLPEQVDIIISEPMGYMLFNERMLESYLHAKKYLKPSGNMFPTIGDVHLAPFTDEQLYMEQFTKANFWYQPSFHGVDLSALRGAAVDEYFRQPVVDTFDIRILMAKSVKYTVNFLEAKEGDLHRIEIPFKFHMLHSGLVHGLAFWFDVAFIGSIMTVWLSTAPTEPLTHWYQVRCLFQSPLFAKAGDTLSGTCLLIANKRQSYDISIVAQVDQTGSKSSNLLDLKNPFFRYTGTTPSPPPGSHYTSPSENM
notes: corresponding to the PRMT core (residues 130–497, mmCARM1_130–497) were amplified by PCR; GST (followed by TEV protease cleavage site) (N, cleaved yes); made in house; host or cells: Sf9 insect cells (baculovirus)
B1 showed a Km [1] of 12.03 ± 2.28 µM and a Km [2] of 5.46 ± 0.01 µM.
